Among the data in PMC4470041 are Ki values, retold here.

Usually Ki stands for the dissociation constant of the complex between target and ligand, obtained from inhibition or displacement. High values mean weaker binding, low ones tighter binding.

This experiment addresses CCR5 expressed in HEK 293T cells (HEK-CCR5 cells) (UniProt P51681). Put plainly: radioligand binding.
Chain of UniProt P51681 (P51681 whole entry): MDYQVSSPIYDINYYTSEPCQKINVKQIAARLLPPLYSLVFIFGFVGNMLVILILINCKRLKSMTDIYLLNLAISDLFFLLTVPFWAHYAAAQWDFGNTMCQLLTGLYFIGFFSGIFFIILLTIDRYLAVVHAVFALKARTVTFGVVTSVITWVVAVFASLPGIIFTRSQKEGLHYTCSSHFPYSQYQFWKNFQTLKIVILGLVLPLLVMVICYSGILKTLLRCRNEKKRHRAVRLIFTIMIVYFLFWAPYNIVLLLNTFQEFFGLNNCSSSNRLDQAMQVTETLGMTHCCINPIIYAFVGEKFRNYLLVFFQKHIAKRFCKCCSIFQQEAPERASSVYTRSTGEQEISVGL

“gp120 from the R5 HIV-1 primary strain Bx08 (natural protein)”: the Ki was 6.3 nM.
